Common to all, as to settings: both partners purified
Assay [1] has as its target T1, Avi-tagged HSP90β (full-length human HSP90β, residues 1–724) (human, UniProt P08238 1-724, biotin (in vivo biotinylation, N-terminally biotinylated)).
T1 construct: HSP90β, human, residues 1-724, cDNA isolated from HEK293T cells; Modified pET21a vector: N-terminal His6-tag, then the Avi tag, then a TEV cleavage site; Used apo (open state) or after incubation with AMPPNP (closed state); the two states are told apart by the assay; Host surmised to be E. coli; also called His6-Avi-tagged HSP90β; N-terminally biotinylated hHSP90B; source: cells grown in TB media …
As to the kind of experiment: BLI; HSP90_(AMPPNP) (closed state): biotinylated Avi-tagged HSP90β on streptavidin sensors, AIPL1 or mutants in solution; Octet RED96, 26 °C, 25 mM Tris, 200 mM NaCl, 2.5% glycerol, 1 mM TCEP, 0.5 mg/ml BSA, pH 7.5; 1:1 kinetic fit (KD = koff/kon) and steady-state fit. Background: In BLI a coated tip is dipped into the sample, and binding shifts an interference pattern.

Assay [2] concerns the target T1, Avi-tagged HSP90β (full-length human …). As to the kind of experiment: BLI; apo HSP90: biotinylated Avi-tagged HSP90β on streptavidin sensors, AIPL1 in solution; Octet RED96, 26 °C, 25 mM Tris, 200 mM NaCl, 2.5% glycerol, 1 mM TCEP, 0.5 mg/ml BSA, pH 7.5; 1:1 kinetic fit (KD = koff/kon) and steady-state fit.
Assay [3] addresses T2, full-length human HSP90β (residues 1–724), pET15b construct (human, UniProt P08238 1-724).
T2 construct: HSP90β, human, residues 1-724, cDNA isolated from HEK293T cells; Cloned into pET15b through Nco1-Nde1 sites; Host surmised to be E. coli; also called apo HSP90; HSP90_(AMPPNP); source: purified by SEC
As to the kind of experiment: cross-linking + other: mass photometry; DSS (0.5 mM) or glutaraldehyde (0.03%) added to HSP90β (15 μM), AIPL1 (25 μM) or their mixture (HSP90_(AMPPNP)/AIPL1), 15 to 30 min at 25 °C, 25 mM Hepes pH 7.5, 200 mM NaCl, 5% glycerol, 1 mM TCEP; products on 3 to 8% Tris-acetate gel and by mass photometry.

“And” between values parts separate entries of the source, which are not always exact repeats. Equal values may be shown once.

T1 sequence (P08238 whole entry, the tested form may be a part): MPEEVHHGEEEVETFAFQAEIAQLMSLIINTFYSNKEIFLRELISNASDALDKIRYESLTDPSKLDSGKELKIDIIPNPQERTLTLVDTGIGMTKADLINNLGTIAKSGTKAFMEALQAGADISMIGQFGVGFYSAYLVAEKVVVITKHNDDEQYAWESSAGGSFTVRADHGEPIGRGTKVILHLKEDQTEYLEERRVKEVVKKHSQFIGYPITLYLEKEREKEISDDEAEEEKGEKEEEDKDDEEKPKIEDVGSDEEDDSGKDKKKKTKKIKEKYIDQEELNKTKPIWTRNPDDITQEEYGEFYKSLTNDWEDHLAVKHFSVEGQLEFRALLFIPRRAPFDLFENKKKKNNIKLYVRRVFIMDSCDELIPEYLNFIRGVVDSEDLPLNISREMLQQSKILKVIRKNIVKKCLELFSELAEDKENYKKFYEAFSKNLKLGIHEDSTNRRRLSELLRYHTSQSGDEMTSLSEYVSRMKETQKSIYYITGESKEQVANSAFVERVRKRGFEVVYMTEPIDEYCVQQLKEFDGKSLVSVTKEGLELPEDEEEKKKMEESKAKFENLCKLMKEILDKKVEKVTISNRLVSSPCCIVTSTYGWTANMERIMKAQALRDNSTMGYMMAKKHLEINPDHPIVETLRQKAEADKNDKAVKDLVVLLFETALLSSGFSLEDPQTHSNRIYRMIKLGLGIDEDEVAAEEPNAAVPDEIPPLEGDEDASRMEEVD
T2 sequence (P08238 whole entry, the tested form may be a part): as above

B1: AIPL1_(1–316) (domain or fragment, mouse, UniProt Q924K1 1-316, looked up)
chain: MDVSLLLNVEGVKKTILHGGTGELPSFITGSRVTFHFRTMKCDDERTVIDDSKQVGQPMSIIIGNMFKLEVWETLLTSMRLGEVAEFWCDTIHTGVYPMLSRSLRQVAEGKDPTSWHVHTCGLANMFAYHTLGYEDLDELQKEPQPLVFLIELLQVEAPNEYQRETWNLNNEERMQAVPLLHGEGNRLYKLGRYDQAATKYQEAIVCLRNLQTKEKPWEVEWLKLEKMINTLILNYCQCLLKKEEYYEVLEHTSDILRHHPGIVKAYYMRARAHAEVWNAEEAKADLEKVLELEPSMRKAVLRELRLLESRLADKQ
notes: source: E. coli BL21-(DE3), purified (Ni-NTA, Mono Q5, SEC)
B1 yielded a Kd in assay [1] of 27 µM.

B2: AIPL1-Δα3 (Δ111–132) (natural protein, mouse)
chain: MDVSLLLNVEGVKKTILHGGTGELPSFITGSRVTFHFRTMKCDDERTVIDDSKQVGQPMSIIIGNMFKLEVWETLLTSMRLGEVAEFWCDTIHTGVYPMLSRSLRQVAEGGGGGGGYEDLDELQKEPQPLVFLIELLQVEAPNEYQRETWNLNNEERMQAVPLLHGEGNRLYKLGRYDQAATKYQEAIVCLRNLQTKEKPWEVEWLKLEKMINTLILNYCQCLLKKEEYYEVLEHTSDILRHHPGIVKAYYMRARAHAEVWNAEEAKADLEKVLELEPSMRKAVLRELRLLESRLADKQEEERQRCRSMLG
notes: AIPL1, mouse, residues before the replaced stretch 111-132; five glycine residues that replace residues 111 to 132 of AIPL1 (told in words); AIPL1, mouse, residues after the replaced stretch 111-132, to the end of the full-length protein (aa 328); also called AIPL1-Δα3 (loop deletion); α3-helix deletion; source: E. coli BL21-(DE3), purified (Ni-NTA, Mono Q5, SEC)
Regarding B2, the binding result in assay [1] was “binds”.

B3: full-length mouse AIPL1 (aa 1–328) (natural protein, UniProt Q924K1 1-328, looked up)
chain: MDVSLLLNVEGVKKTILHGGTGELPSFITGSRVTFHFRTMKCDDERTVIDDSKQVGQPMSIIIGNMFKLEVWETLLTSMRLGEVAEFWCDTIHTGVYPMLSRSLRQVAEGKDPTSWHVHTCGLANMFAYHTLGYEDLDELQKEPQPLVFLIELLQVEAPNEYQRETWNLNNEERMQAVPLLHGEGNRLYKLGRYDQAATKYQEAIVCLRNLQTKEKPWEVEWLKLEKMINTLILNYCQCLLKKEEYYEVLEHTSDILRHHPGIVKAYYMRARAHAEVWNAEEAKADLEKVLELEPSMRKAVLRELRLLESRLADKQEEERQRCRSMLG
notes: also called wt AIPL1; source: E. coli BL21-(DE3), purified (Ni-NTA, Mono Q5, SEC)
Take B3: in assay [1], binding was put at a Kd of 4.8 µM, the koff came to 0.32 s⁻¹ and the on-rate constant (kon) turned out to be 150000 M⁻¹ s⁻¹. For the same molecule, in assay [2], the dissociation constant (Kd) was ~17 µM and 32 µM and 33 µM; the koff is 1.2 s⁻¹; the kon is 71000 M⁻¹ s⁻¹. In addition, the “stoichiometry N” value in assay [3] is 0.5 AIPL1 per HSP90 chain (1:2).

One may read the Kd as the constant that tells how readily two partners part at equilibrium. A word on the koff: it is a measure of how fast the partners let go of each other. Broadly, the kon is the second-order rate constant of association. A low value points to slower complex formation. By stoichiometry N is commonly meant a count of units in the complex or per binding partner.

The values are drawn from PMC8857470, “Molecular insights into the maturation of phosphodiesterase 6 by the specialized chaperone complex of HSP90 with AIPL1” (The Journal of Biological Chemistry, 2022).
